According to paper PMC11417369, “DNA sequence and chromatin differentiate sequence-specific transcription factor binding in the human malaria parasite Plasmodium falciparum”:

T1: AP2-G D1 (Plasmodium falciparum, UniProt Q8I5I9 2123-2245)
T1 sequence: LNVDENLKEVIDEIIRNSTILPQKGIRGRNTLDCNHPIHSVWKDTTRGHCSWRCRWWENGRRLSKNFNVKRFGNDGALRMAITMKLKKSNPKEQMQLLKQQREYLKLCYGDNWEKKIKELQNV

B1: XGTACX_negctrl_site606 (dsDNA)
DNA 1: TTTTTATATATATGTATAAATATTTTTTCTATTTAT
DNA 2: ATAAATAGAAAAAATATTTATACATATATATAAAAA
B2: XGTACX_negctrl_site51 (dsDNA)
DNA 1: AAAAATAAAAAATATAAAAATATAAAAATATAAAAA
DNA 2: TTTTTATATTTTTATATTTTTATATTTTTTATTTTT
B3: XGTACX_negctrl_site296 (dsDNA)
DNA 1: AATGAATTTAATTCTACTATTTTTTTTTTAAATATT
DNA 2: AATATTTAAAAAAAAAATAGTAGAATTAAATTCATT
B4: XGTACX_negctrl_site79 (dsDNA)
DNA 1: TACATGTATGTAATATGTTTTATTTTTTTCATCTCT
DNA 2: AGAGATGAAAAAAATAAAACATATTACATACATGTA
B5: XGTACX_negctrl_site428 (dsDNA)
DNA 1: AACAAGAAAAAAAAAAAAAAAAAAAAAAAATATTTT
DNA 2: AAAATATTTTTTTTTTTTTTTTTTTTTTTTCTTGTT
B6: XGTACX_negctrl_site431 (dsDNA)
DNA 1: TTATTAAAATATACATTTGAAAGTAATCTTATTTAA
DNA 2: TTAAATAAGATTACTTTCAAATGTATATTTTAATAA
B7: XGTACX_negctrl_site582 (dsDNA)
DNA 1: TATTAAAAGAAAAAAAAAAAAAAATTAATACATATA
DNA 2: TATATGTATTAATTTTTTTTTTTTTTTCTTTTAATA
B8: XGTACX_negctrl_site44 (dsDNA)
DNA 1: AAATTAAAATAATAATTCTACAAATTAATTTATCAT
DNA 2: ATGATAAATTAATTTGTAGAATTATTATTTTAATTT
B9: XGTACX_negctrl_site114 (dsDNA)
DNA 1: TATTATTGTCATTTTTTTTTTTTTTTTTTCTATTTC
DNA 2: GAAATAGAAAAAAAAAAAAAAAAAATGACAATAATA
B10: XGTACX_negctrl_site478 (dsDNA)
DNA 1: TACATATATATAATATATATATCATCATATTTTCTT
DNA 2: AAGAAAATATGATGATATATATATTATATATATGTA
B11: XGTACX_negctrl_site425 (dsDNA)
DNA 1: ATTTGTATATAATATATATAATTTTTTTTTTTTGTT
DNA 2: AACAAAAAAAAAAAATTATATATATTATATACAAAT
B12: XGTACX_negctrl_site375 (dsDNA)
DNA 1: AAATAAAATATATACATATATATATTATTTAGTAAT
DNA 2: ATTACTAAATAATATATATATGTATATATTTTATTT
B13: XGTACX_negctrl_site280 (dsDNA)
DNA 1: AATTAATATATAAATAATAAAAAAAAATATATAAAC
DNA 2: GTTTATATATTTTTTTTTATTATTTATATATTAATT
B14: XGTACX_negctrl_site550 (dsDNA)
DNA 1: ACGTAATTAATTCATCAGATATAATTAATAATAATA
DNA 2: TATTATTATTAATTATATCTGATGAATTAATTACGT
B15: XGTACX_negctrl_site68 (dsDNA)
DNA 1: AATATAGAAATAAATATATCACATTTGTGTTTAAAC
DNA 2: GTTTAAACACAAATGTGATATATTTATTTCTATATT
B16: XGTACX_negctrl_site342 (dsDNA)
DNA 1: ATGAACGGAAAAATATATATAAATATATATATCATG
DNA 2: CATGATATATATATTTATATATATTTTTCCGTTCAT
B17: XGTACX_negctrl_site404 (dsDNA)
DNA 1: ATAAAATAAATATTTTGTTATTTATTTAATCTAATA
DNA 2: TATTAGATTAAATAAATAACAAAATATTTATTTTAT
B18: XGTACX_negctrl_site8 (dsDNA)
DNA 1: TAAAACATGTTTTTATATATTATTATTATATTTATA
DNA 2: TATAAATATAATAATAATATATAAAAACATGTTTTA
B19: XGTACX_negctrl_site434 (dsDNA)
DNA 1: ATGCAACTATATATATATATTATATGTATGAATAAT
DNA 2: ATTATTCATACATATAATATATATATATAGTTGCAT
B20: XGTACX_negctrl_site466 (dsDNA)
DNA 1: TTTATATTTATATAAATATAATATATATGAATTATA
DNA 2: TATAATTCATATATATTATATTTATATAAATATAAA
B21: XGTACX_negctrl_site18 (dsDNA)
DNA 1: TCATAAAAAGGAATCTTTAAGATATTTTATAAGCTC
DNA 2: GAGCTTATAAAATATCTTAAAGATTCCTTTTTATGA
B22: XGTACX_negctrl_site185 (dsDNA)
DNA 1: AAACAACAAAAATGATATATATAAAATTTATAATAT
DNA 2: ATATTATAAATTTTATATATATCATTTTTGTTGTTT
B23: XGTACX_negctrl_site55 (dsDNA)
DNA 1: ATGGAATATTTCATGATTTTTTTAATTTTTTTATTG
DNA 2: CAATAAAAAAATTAAAAAAATCATGAAATATTCCAT
B24: XGTACX_negctrl_site340 (dsDNA)
DNA 1: AAAAAATAAATAAACATAAATAAATAAATAAATATA
DNA 2: TATATTTATTTATTTATTTATGTTTATTTATTTTTT
B25: XGTACX_negctrl_site84 (dsDNA)
DNA 1: TTCAAAAAATAAAATAATAATATATATATAAATATA
DNA 2: TATATTTATATATATATTATTATTTTATTTTTTGAA
B26: XGTACX_negctrl_site100 (dsDNA)
DNA 1: TTTATATTATAATATAATAATGATCTTAATTTTTTT
DNA 2: AAAAAAATTAAGATCATTATTATATTATAATATAAA
B27: XGTACX_negctrl_site42 (dsDNA)
DNA 1: AATGAATAACAATACTATATGATTTTTAATACATTA
DNA 2: TAATGTATTAAAAATCATATAGTATTGTTATTCATT
B28: XGTACX_negctrl_site127 (dsDNA)
DNA 1: TTTTTAAAAAAATTGATTCTTTTTCTTTTTTTTCTT
DNA 2: AAGAAAAAAAAGAAAAAGAATCAATTTTTTTAAAAA
B29: XGTACX_negctrl_site416 (dsDNA)
DNA 1: TATTTCAAAATAAAATAAAATATATATATATGTATA
DNA 2: TATACATATATATATATTTTATTTTATTTTGAAATA
B30: XGTACX_negctrl_site234 (dsDNA)
DNA 1: ATTATAACTAAATAAATGATATATAATATTTTATTT
DNA 2: AAATAAAATATTATATATCATTTATTTAGTTATAAT
B31: XGTACX_negctrl_site412 (dsDNA)
DNA 1: AAAGGAGACAGAATAAGAATAAATATTATACATATA
DNA 2: TATATGTATAATATTTATTCTTATTCTGTCTCCTTT
B32: XGTACX_negctrl_site499 (dsDNA)
DNA 1: TTTTACTATGATATTTATATATCTATATATGTATAT
DNA 2: ATATACATATATAGATATATAAATATCATAGTAAAA
B33: XGTACX_negctrl_site390 (dsDNA)
DNA 1: TTATGAATATTGATGTATAAAAAAATATATATGTTA
DNA 2: TAACATATATATTTTTTTATACATCAATATTCATAA
B34: XGTACX_negctrl_site511 (dsDNA)
DNA 1: ATGAAATCTTTAGAATATAGATGATGTTATTTAATT
DNA 2: AATTAAATAACATCATCTATATTCTAAAGATTTCAT
B35: XGTACX_negctrl_site452 (dsDNA)
DNA 1: TATCTCTACAAAATTTTATTCATTATTCATGTTATA
DNA 2: TATAACATGAATAATGAATAAAATTTTGTAGAGATA
B36: XGTACX_negctrl_site344 (dsDNA)
DNA 1: TACAAAAAAATAAATAATAAAAAAAAATATATATAA
DNA 2: TTATATATATTTTTTTTTATTATTTATTTTTTTGTA
B37: XGTACX_negctrl_site397 (dsDNA)
DNA 1: TTTTTTTTCAATCTCTATATATTAAGGTTTATATTT
DNA 2: AAATATAAACCTTAATATATAGAGATTGAAAAAAAA
B38: XGTACX_negctrl_site407 (dsDNA)
DNA 1: AATATATATATAAATAATATACCTATATATTTTTTG
DNA 2: CAAAAAATATATAGGTATATTATTTATATATATATT
B39: XGTACX_negctrl_site414 (dsDNA)
DNA 1: TATCTTTTTATTTTTTATTTTTTTTTTATAATTTAC
DNA 2: GTAAATTATAAAAAAAAAATAAAAAATAAAAAGATA
B40: XGTACX_negctrl_site205 (dsDNA)
DNA 1: AACAATATATTGATATTATTTTAAGTGATTATATAT
DNA 2: ATATATAATCACTTAAAATAATATCAATATATTGTT
B41: XGTACX_negctrl_site207 (dsDNA)
DNA 1: TTTTTATTTAATATTTTAAAAAAAAATCATTTTTAA
DNA 2: TTAAAAATGATTTTTTTTTAAAATATTAAATAAAAA
B42: XGTACX_negctrl_site140 (dsDNA)
DNA 1: ATCTTATATCGTAGAGATTTTTTTTTTTTTTCATTT
DNA 2: AAATGAAAAAAAAAAAAAATCTCTACGATATAAGAT
B43: XGTACX_negctrl_site402 (dsDNA)
DNA 1: AAAAGAATAATAATTTATGTATATTAATTAAAGAAT
DNA 2: ATTCTTTAATTAATATACATAAATTATTATTCTTTT

Each binder was assayed against T1, AP2-G D1 (assay: gcPBM; about 25 ug protein; PBS, 1% milk, 0.2 mg/ml BSA, salmon testes DNA, 0.03% Triton X-100). Conditions: tags: N-terminal GST (pGEX-4T-1), kept; label: surface-attached array probe.
For B1, the binding signal was 9.44 ln median PBM intensity, better of two orientations. In the case of B2, the binding signal is reported as 9.09 ln median PBM intensity, better of two orientations. In the case of B3, the binding signal is reported as 9.5 ln median PBM intensity, better of two orientations. For B4, the binding signal was 9.12 ln median PBM intensity, better of two orientations. In the case of B5, the binding signal is reported as 9.36 ln median PBM intensity, better of two orientations. For B6, the binding signal was 9.42 ln median PBM intensity, better of two orientations. In the case of B7, the binding signal is reported as 9.38 ln median PBM intensity, better of two orientations. With B8 the binding signal was 9.42 ln median PBM intensity, better of two orientations. In the case of B9, the binding signal is reported as 9.51 ln median PBM intensity, better of two orientations. For B10, the binding signal was 9.22 ln median PBM intensity, better of two orientations. With B11 the binding signal was 9.44 ln median PBM intensity, better of two orientations. With B12 the binding signal was 9.35 ln median PBM intensity, better of two orientations. In the case of B13, the binding signal is reported as 9.42 ln median PBM intensity, better of two orientations. For B14, the binding signal was 9.41 ln median PBM intensity, better of two orientations. B15 was tested, and the binding signal was 9.45 ln median PBM intensity, better of two orientations. In the case of B16, the binding signal is reported as 9.47 ln median PBM intensity, better of two orientations. In the case of B17, the binding signal is reported as 9.22 ln median PBM intensity, better of two orientations. With B18 the binding signal was 9.11 ln median PBM intensity, better of two orientations. In the case of B19, the binding signal is reported as 9.5 ln median PBM intensity, better of two orientations. With B20 the binding signal was 9.51 ln median PBM intensity, better of two orientations. For B21, the binding signal was 9.17 ln median PBM intensity, better of two orientations. With B22 the binding signal was 9.32 ln median PBM intensity, better of two orientations. In the case of B23, the binding signal is reported as 9.52 ln median PBM intensity, better of two orientations. With B24 the binding signal was 9.52 ln median PBM intensity, better of two orientations. For B25, the binding signal was 9.17 ln median PBM intensity, better of two orientations. For B26, the binding signal was 9.34 ln median PBM intensity, better of two orientations. B27 was tested, and the binding signal was 9.52 ln median PBM intensity, better of two orientations. In the case of B28, the binding signal is reported as 9.16 ln median PBM intensity, better of two orientations. For B29, the binding signal was 9.38 ln median PBM intensity, better of two orientations. B30 was tested, and the binding signal was 9.29 ln median PBM intensity, better of two orientations. B31 was tested, and the binding signal was 9.08 ln median PBM intensity, better of two orientations. B32 was tested, and the binding signal was 9.32 ln median PBM intensity, better of two orientations. B33 was tested, and the binding signal was 9.46 ln median PBM intensity, better of two orientations. In the case of B34, the binding signal is reported as 9.15 ln median PBM intensity, better of two orientations. For B35, the binding signal was 9.53 ln median PBM intensity, better of two orientations. With B36 the binding signal was 9.07 ln median PBM intensity, better of two orientations. With B37 the binding signal was 9.41 ln median PBM intensity, better of two orientations. B38 was tested, and the binding signal was 9.52 ln median PBM intensity, better of two orientations. For B39, the binding signal was 9.42 ln median PBM intensity, better of two orientations. In the case of B40, the binding signal is reported as 9.41 ln median PBM intensity, better of two orientations. For B41, the binding signal was 9.53 ln median PBM intensity, better of two orientations. For B42, the binding signal was 9.22 ln median PBM intensity, better of two orientations. With B43 the binding signal was 9.4 ln median PBM intensity, better of two orientations.
